Assay results: patent US20230364000A1, “COMPOSITIONS COMPRISING COMBINATIONS OF COLLAGEN OR ELASTIN POLYPEPTIDES WITH ACTIVE INGREDIENTS AND METHODS OF USING SAME” (Geltor, Inc., priority 2020, published 2023)

Columns and labels:
[1] = tested on: Human full-thickness skin equivalents (MatTek Epiderm FT co-culture tissue models); test: Fibronectin production in human full-thickness skin equivalents (ELISA); format: cell-based; details: polypeptide 0.1% w/w, FIG. 19; for production of fibronectin as compared to untreated cells: each agent alone, day 4, retinol (10, unit not given), ascorbic acid 2% w/w, hyaluronic acid 0.1% w/w
[2] = tested on: Human full-thickness skin equivalents (MatTek Epiderm FT co-culture tissue models); test: Type I collagen production in human full-thickness skin equivalents (pro-collagen type I C-peptide ELISA); format: cell-based; details: polypeptide 0.1% w/w, FIG. 18; for production of type I collagen as compared to untreated cells: each agent alone, day 4, retinol (10, unit not given), ascorbic acid 2% w/w, hyaluronic acid 0.1% w/w
Description: Human full-thickness skin equivalents (MatTek Epiderm FT co-culture tissue models) which contain keratinocytes and fibroblasts were treated with a 0.1% w/w truncated human type 21 collagen polypeptide (having an amino acid sequence of SEQ ID NO: 16) (“C21”; FIG. […] Culture medium was changed every 2 days. On day 4, supernatant was collected and analyzed by enzyme-linked immunosorbent assay (ELISA) for pro-collagen type I C-peptide, which is a readout for total secreted collagen type I protein.

[3] = tested on: Human full-thickness skin equivalents (MatTek Epiderm FT co-culture tissue models); test: Elastin production in human full-thickness skin equivalents (ELISA); format: cell-based; details: polypeptide 0.1% w/w, retinol (10, unit not given), ascorbic acid 2% w/w, FIG. 20; for increase of elastin production relative to untreated control: day 2 supernatant; for production of elastin as compared to untreated cells: each agent alone, day 2, hyaluronic acid 0.1% w/w
From the text: The combination of the truncated human type 21 collagen polypeptide with retinol increased elastin production by 45% relative to untreated control. This appeared to be a synergistic effect as treatment with truncated human type 21 collagen polypeptide alone increased elastin production by 20% and treatment with retinol alone increased elastin production by 17%. The combination of the truncated human type 21 collagen polypeptide with ascorbic acid increased elastin production by 33% relative to untreated control. This appeared to be a synergistic effect as treatment with truncated human type 21 collagen polypeptide alone increased elastin production by 20% and treatment with ascorbic acid alone increased elastin production by 5%.

[4] = tested on: Human full-thickness skin equivalents (MatTek Epiderm FT co-culture tissue models); test: Type III collagen production in human full-thickness skin equivalents (pro-collagen type III N-peptide ELISA); format: cell-based; details: polypeptide 0.1% w/w, ascorbic acid 2% w/w, FIG. 21; for production of type III collagen as compared to untreated cells: each agent alone, day 2, retinol (10, unit not given), hyaluronic acid 0.1% w/w
[5] = Oxygen radical absorbance capacity (ORAC) assay, cell-free; format: biochemical; details: for anti-oxidative capacity (ORAC): FIG. 25
Description: The antioxidant potential of a polypeptide of SEQ ID NO: 16 was assessed using the oxygen free radical absorbance capacity (ORAC) assay. The ORAC assay is a cell-free assay that uses a fluorescent readout to measure a product's antioxidant capacity. Data is reported in Trolox (Vitamin E) equivalents.
A polypeptide of SEQ ID NO: 5 was also evaluated in the ORAC assay.
An oxygen radical absorbance capacity (ORAC) assay was performed to analyze the anti-oxidative capacity of a polypeptide according to SEQ ID NO: 52. The ORAC assay is a cell-free assay that uses a fluorescent readout to measure anti-oxidative capacity. Data is reported in Trolox (Vitamin E) equivalents (TEs).

[6] = tested on: human primary keratinocytes; test: MTT viability of keratinocytes exposed to urban dust; format: cell-based; details: pre-treated with 0.03% for 24 hours, then 2 mg/ml urban dust (NIST 1649B) for 24 hours; compared with untreated exposed keratinocytes; FIG. 13
Description: To test for protection from urban dust, human primary keratinocytes were pre-treated with 0.03% of a polypeptide of SEQ ID NO: 5 for 24 hours, and then exposed to 2 mg/ml urban dust (NIST 1649B) for 24 hours. Cell viability was evaluated using the MTT metabolic colorimetric assay.

[7] = tested on: facial skin; test: Cutometer facial skin elasticity, clinical study of Example 7; format: in vivo, human; details: topical facial cream 0.05%, n=18, FIG. 17
From the text: (§1) In a clinical study (n=18 subjects), subjects used a topical facial cream containing 0.05% of a polypeptide of SEQ ID NO: 5 for 2 weeks.

[8] = tested on: human primary keratinocytes; test: Thymine dimers in UVB-irradiated keratinocytes (OxiSelect UV-Induced DNA Damage ELISA); format: cell-based; details: 25 mJ/cm^2 UVB, then overnight with 0.03%; compared with untreated cells; FIG. 11
Description: In a further study, human primary keratinocytes were irradiated with 25 mJ/cm^2 UVB light, then incubated overnight in media with 0.03% of a polypeptide of SEQ ID NO: 5. DNA was extracted from the cells and analyzed for levels of thymine dimers (an indicator of DNA damage) using an OxiSelect UV-Induced DNA Damage ELISA kit.

[9] = tested on: facial skin; test: Facial skin hydration, clinical study of Example 7; format: in vivo, human; details: topical facial cream 0.05%, n=18, FIG. 16
From the text: as §1

[10] = tested on: in vitro full thickness human skin tissue model (MatTek); test: IL-la ELISA in UVB-irradiated full thickness human skin tissue model; format: cell-based; details: 300 mJ/cm^2 UVB, then 0.01% for 24 hours; compared to untreated UVB-irradiated control; FIG. 14
Description: In a further study with the in vitro full thickness human skin tissue model (MatTek), the MatTek tissue models were irradiated with 300 mJ/cm^2 UVB light, then treated with 0.01% of a polypeptide of SEQ ID NO: 5 for 24 hours. Levels of pro-inflammatory cytokine IL-la was determined by ELISA.

[11] = tested on: in vitro full thickness human skin tissue model (MatTek); test: Collagen type I secretion by full thickness human skin tissue model (pro-collagen type I C-peptide ELISA); format: cell-based; details: treatment 48 hours, fresh media another 48 hours (96 hour timepoint); compared with untreated tissue models or positive control Vitamin B3; FIG. 10
Description: A series of in vitro experiments were conducted to assess the effects of a truncated jellyfish collagen on human skin fibroblasts and keratinocytes. An in vitro full thickness human skin tissue model (MatTek) which contains fibroblasts and keratinocytes was evaluated for collagen type I secretion after treatment with a polypeptide of SEQ ID NO: 5 for 48 hours. The tissue models were then rinsed and incubated with fresh media for another 48 hours (96 hour timepoint). The culture supernatants were analyzed by ELISA for pro-collagen type I C-peptide (a readout for total secreted collagen type I protein).

[12] = tested on: human primary keratinocytes; test: MTT viability of UVB-irradiated keratinocytes, post-irradiation treatment; format: cell-based; details: 40 mJ/cm^2 UVB, then 48 hours with 0.03%; compared with untreated UVB-irradiated keratinocytes; FIG. 12
Description: Human primary keratinocytes were irradiated with 40 mJ/cm^2 UVB light, then incubated for 48 hours in media with 0.03% of a polypeptide of SEQ ID NO: 5. Cell viability was evaluated using the MTT metabolic colorimetric assay.

[13] = tested on: Keratinocytes; test: Clariom microarray global gene expression in keratinocytes; format: cell-based; details: 0.03% w/w solution, 24 hours, relative to untreated cells
Description: Keratinocytes were incubated for 24 hours with media alone or with 0.03% w/w solution of a polypeptide according to SEQ ID NO: 52. RNA was extracted from the cells and analyzed by Clariom microarray (ThermoFisher) for global gene expression.
Keratinocytes were incubated for 24 hours with media alone (untreated) or with 0.03% w/w solution of a polypeptide according to SEQ ID NO: 52. RNA was extracted from the cells and analyzed by Clariom microarray (ThermoFisher) for global gene expression.

[14] = tested on: Human primary fibroblast cultures; test: Fibroblast elastin production (ELISA kit); format: cell-based; details: 0.03% w/w solution; 24 hours; compared to media alone; FIG. 28
Description: Human primary fibroblast cultures were treated for 24 hours with media alone (untreated) or with 0.03% w/w solution of a polypeptide having an amino acid sequence according to SEQ ID NO: 52. Supernatants were collected and evaluated for elastin production using an ELISA kit.

[15] = tested on: human primary fibroblasts; test: Fibroblast collagen type I protein secretion with truncated elastin (pro-collagen type I C-peptide ELISA); format: cell-based; details: 48 hours, compared with untreated control fibroblasts, FIG. 24
Description: Fibroblasts are the main source of the extracellular matrix peptides, including the structural proteins collagen and elastin. Human primary fibroblasts were evaluated for collagen type I protein secretion. Fibroblasts were cultured with a polypeptide according to SEQ ID NO: 52 for 48 hours. The culture supernatants were analyzed by ELISA for pro-collagen type I C-peptide, a readout for total secreted collagen type I protein.

[16] = day 4 supernatant, hyaluronic acid 0.1% w/w (low molecular weight, 15-40 kDa)

In the case of `O=C1O[C@H]([C@@H](O)CO)C(O)=C1O` [ascorbic acid], the “production of fibronectin as compared to untreated cells” value [1] is reported as “increased production”, the “production of type I collagen as compared to untreated cells” value [2] is reported as “increased production” and the “increase of elastin production relative to untreated control” value [3] is reported as 5%. The “production of elastin as compared to untreated cells” value [3] was “increased production”, the “increase of type III collagen production relative to untreated control” value ([4]; day 2 supernatant) was 80% and the “production of type III collagen as compared to untreated cells” value [4] was “increased production”.

In the case of `CC1=C(/C=C/C(C)=C/C=C/C(C)=C/CO)C(C)(C)CCC1` [retinol], the “production of fibronectin as compared to untreated cells” value [1] is reported as “increased production”, the “production of type I collagen as compared to untreated cells” value [2] is reported as “increased production” and the “increase of elastin production relative to untreated control” value [3] is reported as 17%. The “production of elastin as compared to untreated cells” value [3] was “increased production” and the “production of type III collagen as compared to untreated cells” value [4] was “increased production”.

With hyaluronic acid the “increase of fibronectin production relative to untreated control” value [1, 16] was 30%, the “production of fibronectin as compared to untreated cells” value [1] was “increased production” and the “increase of type I collagen production relative to the untreated control” value [2, 16] was 72%. For the same molecule, the “production of type I collagen as compared to untreated cells” value [2] was “increased production”, the “production of elastin as compared to untreated cells” value [3] was “increased production” and the “production of type III collagen as compared to untreated cells” value [4] was “increased production”.

B1: SEQ ID NO: 5: truncated jellyfish collagen without a His tag, linker, and thrombin cleavage site (protein)
chain: GPQGVVGADGKDGTPGNAGQKGPSGEPGSPGKAGSAGEQGPPGKDGSNGEPGSPGKEGERGLAGPPGPDGRRGETGSPGIAGALGKPGLEGPKGYPGLRGRDGTNGKRGEQGETGPDGVRGIPGNDGQSGKPGIDGIDGTNGQPGEAGYQGGRGTRGQLGETGDVGQNGDRGAPGPDGSKGSAGRPGLR
For B1, the “antioxidant properties, Trolox (Vitamin E) equivalents” value ([5]; 0.1% solution) was 193 μM Trolox, the “cell viability (MTT) after urban dust exposure” value [6] was “higher cell viability” and the “skin elasticity (cutometer)” value ([7]; 1 week vs baseline) was “increased”. The “skin elasticity (cutometer)” value ([7]; 2 weeks vs baseline) was “increased”, the “level of thymine dimers (DNA damage)” value [8] was “lower level” and the skin hydration ([9]; 1 week vs baseline) was “increased”. For the same molecule, the skin hydration ([9]; 2 weeks vs baseline) was “increased”, the “skin hydration relative to topical application of marine collagen” value ([9]; baseline, 1 week and 2 weeks) was “increased skin hydration” and the “levels of IL-la” value [10] was “lower levels”. The “secreted collagen type I (pro-collagen type I C-peptide)” value (“secreted collagen type I” for short) [11] was “higher levels” and the “cell viability (MTT)” value [12] was “higher cell viability”.

B2: SEQ ID NO: 52: 13 kDa non-naturally occurring truncated human elastin without the DsbA secretion tag (protein)
chain: AGLGGVPGVGGLGVSAGAVVPQPGAGVKPGKVPGVGLPGVYPGGVLPGARFPGVGVLPGVPTGAGVKPKAPGVGGAFAGIPGVGPFGGPQPGVPLGYPIKAPKLPGGYGLPYTTGKLPYGYGPGGVAGAAGKAGYPTGTGVGPQ
For B2, the “anti-oxidative capacity (ORAC)” value ([5]; 0.0125% w/w solution) was “anti-oxidative properties”, the “anti-oxidative capacity (ORAC)” value ([5]; 0.025% w/w solution) was “anti-oxidative properties” and the “anti-oxidative capacity (ORAC)” value ([5]; 0.05% w/w solution) was “anti-oxidative properties”. The “anti-oxidative capacity (ORAC)” value ([5]; 0.1% w/w solution) was “anti-oxidative properties”, the “anti-oxidative properties, Trolox (Vitamin E) equivalents” value ([5]; 0.2% w/w solution) was 228 μM Trolox and the “anti-oxidative capacity (ORAC)” value ([5]; 0.2% w/w solution) was “anti-oxidative properties”. For the same molecule, the “expression of antioxidant genes, including SOD2, GPX2, GPX4, GSTK1, GSTZ1, GSTA4, GSTM2, CCS, GPX1, GLRX, PRDXS, PRDX6, and PRDX2” value ([13]; FIG. 26) was “upregulated”, the “expression of pro-apoptotic genes, including APAF1, BAK1, CASP7, CASP8, FADD, MCL1, and MET” value ([13]; FIG. 27) was “downregulated” and the production of elastin [14] was “increased production”. For the same molecule, the “secreted collagen type I” value ([15]; 0.025% w/w solution) was “higher levels”, the “secreted collagen type I” value ([15]; 0.05% w/w solution) was “higher levels” and the “secreted collagen type I” value ([15]; 0.1% w/w solution) was “higher levels”.
